T1: monkey GFRα3 expressed with a C-terminal myc-myc-hexahistidine tag (monkey (Mf), UniProt O60609 32-374 (human entry), limits assumed)
T1 construct: also called MfGFRα3-mmh; MfGFRα3-mmH
T1 chain: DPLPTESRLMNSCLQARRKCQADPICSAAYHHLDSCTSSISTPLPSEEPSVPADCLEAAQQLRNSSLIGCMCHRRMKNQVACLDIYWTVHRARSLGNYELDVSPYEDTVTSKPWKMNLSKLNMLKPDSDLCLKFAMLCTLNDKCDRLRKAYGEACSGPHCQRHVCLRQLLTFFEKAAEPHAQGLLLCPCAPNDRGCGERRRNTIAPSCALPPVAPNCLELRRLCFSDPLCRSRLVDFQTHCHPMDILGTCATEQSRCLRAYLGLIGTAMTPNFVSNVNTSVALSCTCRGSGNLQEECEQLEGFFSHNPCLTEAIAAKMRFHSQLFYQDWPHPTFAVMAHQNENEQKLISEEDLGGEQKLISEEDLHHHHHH


Experiments:
[1] = target: T1, monkey GFRα3 expressed with a …; assay: SPR, Ab captured, 37C
Protocol: (§1) Antibodies were tested for binding to human GFRα3 expressed with either a C-terminal myc-myc-hexahistidine tag (hGFRα3-mmh; SEQ ID: 370, a C-terminal hFc tag (hGFRα3-hFc; SEQ ID:371), or a C-terminal mFc tag (hGFRα3-mFc; SEQ ID:372), as well as monkey GFRα3 expressed with a C-terminal myc-myc-hexahistidine tag (MfGFRα3-mmh; SEQ ID:373). Anti-GFRα3 antibodies were captured on either a goat anti-mouse IgG polyclonal antibody (GE Healthcare, #BR-1008-38) or a mouse anti-human IgG monoclonal antibody (GE Healthcare, #BR-1008-39) surface created through direct amine coupling to a Biacore CM5 sensor chip. Kinetic experiments were carried out using HBS-EP (10 mM HEPES, 150 mM NaCl, 3 mM EDTA, 0.05% Surfactant P20, at pH 7.4) or PBS buffer containing 0.05% v/v surfactant P20 as both the running buffer and the sample buffer. Binding to human GFRα3-mmh or monkey GFRα3-mmh was evaluated by injecting several concentrations ranging from 200 to 7.4 nM (3-fold dilutions) across the captured antibody surface. Binding to human GFRα3-mFc or human GFRα3-hFc was evaluated by injecting several concentrations ranging from 100 to 3.7 nM (3-fold dilutions) across the captured antibody surface. Antibody-antigen association was monitored for up to 4 minutes, while dissociation in buffer was monitored for up to 20 minutes. Kinetic association (kₐ) and dissociation (kd) rate constants were determined by processing and fitting the data to a 1:1 binding model using Scrubber 2.0c curve fitting software. Binding dissociation equilibrium constants (KD) and dissociative half-lives (t_{1/2}) were calculated from the kinetic rate constants as: KD (M)=kd/kₐ and t_{1/2} (min)=[ln 2/(60*kd)].

[2] = target: T2, human GFRα3 expressed with a C-terminal myc-myc-hexahistidine tag (human, UniProt O60609 32-374, biotinylated (sites not given) in ELISA format 2 and in the Octet cross-competition; not in SPR); assay: SPR, Ab captured, 37C
T2 construct: also called hGFRα3-mmh; hGFRα3-mmH
Protocol: as §1

[3] = target: T2, human GFRα3 expressed with a C-terminal …; assay: Octet cross-competition; biotin-hGFRα3-mmH pre-saturated with first antibody H4H2357S
Protocol: (§2) A cross-competition assay was conducted to assess the ability of select antibodies to compete with one another for binding to human GFRα3 using an Octet RED384 biosensor (Fortebio Inc.). The entire experiment was performed at 25° C. with the flow rate of 1000 rpm in Octet HBST buffer (0.01 M HEPES pH7.4, 0.15M NaCl, 3 mM EDTA, 0.05% v/v Surfactant P20, 0.1 mg/mL BSA). To assess whether 2 antibodies were able to compete with one another for binding to their respective epitopes on biotinylated recombinant human GFRα3 expressed with a C-terminal myc-myc-hexahistidine tag (biotin-hGFRα3-mmH; SEQ ID:370), around ˜1.2 nm of biotin-hGFRα3-mmH was first captured onto streptavidin-coated Octet sensor tips (Fortebio Inc, #18-5019) by submerging the tips for 1 minute into a 10 μg/mL solution of biotin-hGFRα3-mmH. The antigen coated sensor tips were then placed into wells containing 25 μg/mL solution of a first anti-GFRα3 monoclonal antibody for 4 minutes to saturate the biotin-hGFRα3-mmH surface. The sensor tips were then subsequently dipped into wells containing 25 μ/mL solution of a second anti-GFRα3 monoclonal antibody. The sensor tips were washed in Octet HBST buffer in between every step of the experiment. The real-time binding response was monitored during the course of the experiment and the binding response at the end of every step was recorded as shown in FIG. 9. The response of mAb-2 binding to biotin-hGFRα3-mmH pre-complexed with the first antibody was compared and competitive/non-competitive behavior of different anti-GFRα3 monoclonal antibodies was determined.

[4] = target: T2, human GFRα3 expressed with a C-terminal …; assay: Octet cross-competition; biotin-hGFRα3-mmH pre-saturated with first antibody H4H2350P
Protocol: as §2

[5] = target: T2, human GFRα3 expressed with a C-terminal …; assay: Octet cross-competition; biotin-hGFRα3-mmH pre-saturated with first antibody H4H2212N
Protocol: as §2

[6] = target: T2, human GFRα3 expressed with a C-terminal …; assay: Octet cross-competition; biotin-hGFRα3-mmH pre-saturated with first antibody H4H2292S
Protocol: as §2

[7] = target: T2, human GFRα3 expressed with a C-terminal …; assay: Octet cross-competition; biotin-hGFRα3-mmH pre-saturated with first antibody H4H2296S
Protocol: as §2

Row | Kd [1] [nM] | koff [1] [s⁻¹] | kon [1] [M⁻¹ s⁻¹] | t1/2 [1] [min] | Kd [2] [nM] | koff [2] [s⁻¹] | kon [2] [M⁻¹ s⁻¹] | t1/2 [2] [min] | binding response of second antibody (nm) [3] [nm] | binding response of second antibody (nm) [4] [nm] | binding response of second antibody (nm) [5] [nm] | binding response of second antibody (nm) [6] [nm] | binding response of second antibody (nm) [7] [nm] | Binder
1 | 1.94 | 0.000693 | 357000 | 17 | 0.58 | 0.000323 | 558000 | 36 | 0.18 | 2.57 | 2.69 | 2.81 | 0.18 | H4H2291S (antibody, human IgG4, V domains shown, human IgG4 Fc (H4H)) VH: EVQLVESGGGLVQPGESLRLSCAASGFTFSNYAMSWVRQAPGKGLEWVSVISGSGGSTYYADSVKGRFTMSRDNSKNTLYLQMNSLRAEDTAVYYCAKPPSRAARYFNYGMDVWGQGTTVTVSS VL: AIRMTQSPSSVSASVGDRVTITCRASQGISSWLAWYQQKPGKAPKLLIYAASSLQSGVPSRFSGSGSGTDFTLTISSLQPEDFATYYCQQANSFPFTFGGGTKVEIK
2 | 10.3 | 0.00285 | 277000 | 4 | 0.802 | 0.000614 | 765000 | 19 | 0.06 | 2.1 | 2.36 | 2.36 | 0.07 | H4H2296S (antibody, human IgG4, V domains shown, human IgG4 Fc (H4H)) VH: not shown VL: DIVMTQSPSSVSASVGDRVTITCRASQGISSWLAWYQQKPGKAPKLLIYAASSLRSGVPSRFSGSGSGTDFTLTITSLQPEDFATYYCQHTNSFPFTFGPGTKVEIK
3 | 20.4 | 0.00561 | 276000 | 2 | 1.77 | 0.00119 | 669000 | 10 | 0.12 | 2.05 | 2.15 | 2.31 | 0.05 | H4H2295S (antibody, human IgG4, V domains shown, human IgG4 Fc (H4H)) VH: EVQLVESGGGLVQAGGSLRLSCVASGFTFSSYAMSWVRQAPGKGLEWVSAISGSGGSTYSADSVKGRFTISRDNSKNTLYLQMNSLRAEDTAVYYCTKPSSYSSSNFYYGMDVWGQGTTVTVSS VL: DIQMTQSPSSVSASVGDRVTITCRASQGISSWLAWYQQKPGKAPKLLIYTASSLQSGVPSRFSGSGSRTDFTLTISSLQPEDFATYYCQQTNSLPLTFGPGTKVEIK
4 | 2.25 | 0.000974 | 433000 | 12 | 0.338 | 0.000261 | 773000 | 44 | 0.05 | 2 | 2.12 | 2.31 | 0.04 | H4H2294S (antibody, human IgG4, V domains shown, human IgG4 Fc (H4H)) VH: EVQLVESGGGLVQPGGSLRLSCAASGFTFSSYAMSWVRQAPGKGLEWVSVISGSGGSTYYADAVKGRFTISRDNSKHTLYLQMNSLRAEDTAVYYCTKPSSYSSSNFYYGMDVWGQGSTVTVSS VL: DIQLTQSPSSVSASVGDRVTITCRASQGISSWLAWYQQKPGKAPKLLIYAASSLQSGVPSRFSGSGSGTDFTLTISSLQPEDFATYYCQQTNSFPFPFGPGTKVDIK
5 | 26.3 | 0.00353 | 134000 | 3 | 47.3 | 0.0087 | 184000 | 1 |  |  |  |  |  | H4H2345S (antibody, human IgG4, V domains shown, human IgG4 Fc (H4H)) VH: EVQLVESGGGLVRPGRSLRLSCAASGFTFDNYAMHWVRQVPGKGLEWVSGITWNSVSLGYADSVKGRFTISRDNAQNSLYLQMNSLRTVDTALYYCAKDRWGGSYYFDFWGQGTLVTVSS VL: DIVMTQSPSSLSASVGDRVTITCRASQGISNYLAWYQQKPGKVPKLLIYSASTLQSGVPSRFSGSGSGTDFTLTISNLQPEDFATFFCQKYNSAPTFGGGTKVEIK
6 |  |  |  |  | 0.382 | 0.000748 | 1.96e+06 | 15 | 0.04 | 1.98 | 2.14 | 2.24 | 0.07 | H4H2236N3 (antibody, human IgG4, V domains shown, human IgG4 Fc (H4H)) VH: EVQLLESGGNLVQPGGSLRLSCAASGFTFSSYAMTWVRQAPGKGLEWVSTISGSGTSTYYADSVKGRFTISRDNSRDTVFLQMNSLRAEDTAVYYCSKPSALRFLHWLAMDVWGQGTLVTVSS VL: DIQMTQSPSSLSAFVGDRVTITCRASQDIRNYLDWFQQKPGKAPKSLIYAASNLQSGVPSRFGGSGSGTDFTLTINSLQPEDFVTYYCQQYNSYPPTFGGGTKVEIK
7 |  |  |  |  | 5.2 | 0.00244 | 469000 | 5 | 0.01 | 1.72 | 0.16 | 1.91 | 0.06 | H4H2243N2 (antibody, human IgG4, V domains shown, human IgG4 Fc (H4H)) VH: QVQLVQSGAEVKKPGASVKVSCKASGYTFTSYGIIWVRQAPGQGLEWMGWISGYNGNTNYAQNLQGRVTMTTDTSTTTAYMELRSLRSDDTAVYYCARWGIATRPYYYYGMDVWGQGTTVTVSS VL: DIQMTQSPSSLSASVGDRVTITCRASQDITNYLAWFQQKPGKAPKSLIYAASSLQSGVPSKFSGSGSGTDFTLTISSLQPEDFATYYCQQYNSYPPTFGPGTKVDIK
8 |  |  |  |  |  |  |  |  | 1.9 | 1.57 | 0.05 | 1.78 | 1.76 | H4H2212N (antibody, human IgG4, V domains shown, human IgG4 Fc (H4H)) VH: EVQLLESGGGLVQPGGSLRLSCAASGFTFSSYAMSWVRQGPGKGLEWVSGISGSGGSTYNADSVKGRFTISRDNSKNTLYLQMNSLRAEDTAVYYCAKDSGTYWYYFDYWGQGILVTVSS VL: not shown
